From paper PMC10398351 (2023)

Columns and labels:
Test in all cases: SPR
[1] = target: MUC1-ST (4) (UniProt P15941, ST antigen (Neu5Acα2,3Galβ1,3GalNAcα) on the Thr of the Asp-Thr-Arg-Pro moiety)
[2] = target: non-glycosylated MUC1 TRD (2) (UniProt P15941)
[3] = target: MUC1 TRD-Tn (3) (UniProt P15941, Tn antigen (GalNAcα) on the Thr of the Asp-Thr-Arg-Pro moiety)
Sequence of MUC1 TRD-Tn (3) (P15941 whole entry, looked up): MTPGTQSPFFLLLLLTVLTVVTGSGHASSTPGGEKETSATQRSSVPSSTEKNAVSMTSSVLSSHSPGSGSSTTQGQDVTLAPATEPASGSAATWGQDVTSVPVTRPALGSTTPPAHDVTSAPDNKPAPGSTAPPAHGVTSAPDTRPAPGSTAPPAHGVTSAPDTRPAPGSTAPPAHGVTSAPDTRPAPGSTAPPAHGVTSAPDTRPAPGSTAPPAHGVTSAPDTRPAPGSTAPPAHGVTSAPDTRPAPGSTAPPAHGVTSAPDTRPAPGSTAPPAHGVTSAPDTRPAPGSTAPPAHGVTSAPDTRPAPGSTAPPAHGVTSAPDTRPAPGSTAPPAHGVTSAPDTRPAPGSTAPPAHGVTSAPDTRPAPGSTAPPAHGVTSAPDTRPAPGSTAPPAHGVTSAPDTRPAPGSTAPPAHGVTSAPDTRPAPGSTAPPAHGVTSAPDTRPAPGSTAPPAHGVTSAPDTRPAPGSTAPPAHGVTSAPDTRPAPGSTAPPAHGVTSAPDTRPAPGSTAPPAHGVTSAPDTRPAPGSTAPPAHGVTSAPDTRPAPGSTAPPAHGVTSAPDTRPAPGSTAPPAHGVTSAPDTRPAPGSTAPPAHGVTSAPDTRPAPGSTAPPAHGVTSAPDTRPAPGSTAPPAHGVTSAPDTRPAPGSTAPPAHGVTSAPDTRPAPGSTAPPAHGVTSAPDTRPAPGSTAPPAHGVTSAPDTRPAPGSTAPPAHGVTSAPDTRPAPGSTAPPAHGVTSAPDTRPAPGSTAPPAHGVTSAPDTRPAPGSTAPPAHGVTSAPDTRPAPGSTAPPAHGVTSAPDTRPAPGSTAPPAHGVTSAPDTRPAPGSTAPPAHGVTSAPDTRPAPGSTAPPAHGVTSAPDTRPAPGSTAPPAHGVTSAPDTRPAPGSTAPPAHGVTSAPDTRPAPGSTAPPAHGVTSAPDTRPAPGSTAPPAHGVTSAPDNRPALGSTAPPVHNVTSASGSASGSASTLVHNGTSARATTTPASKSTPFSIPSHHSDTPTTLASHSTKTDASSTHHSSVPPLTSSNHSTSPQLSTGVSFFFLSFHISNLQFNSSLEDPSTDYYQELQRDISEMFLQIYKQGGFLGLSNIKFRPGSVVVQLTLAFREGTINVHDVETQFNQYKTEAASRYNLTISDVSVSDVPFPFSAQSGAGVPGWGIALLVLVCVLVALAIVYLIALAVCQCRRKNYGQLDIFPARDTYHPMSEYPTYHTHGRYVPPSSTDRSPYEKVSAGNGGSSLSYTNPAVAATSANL

Sequence of non-glycosylated MUC1 TRD (2) (P15941 whole entry, looked up): as above
Sequence of MUC1-ST (4) (P15941 whole entry, looked up): as above

B1: SN-131 Fab (Fab, V domains shown)
VH: QVQLQQSGAELARPGASVKLSCKASGYTFTNYGLSWVKQRTGQGLEWIGENHPGSGIIYHNEKFRGKATLTADKSSSTAYVQLSSLTSEDSAVYFCARSSGTRGFAYWGQGTLVTVSA
VL: DVLMTQTPLSLPVSLGDQASISCRSSQSIVHSNGNTYLEWYLQKPGQSPKLLIYKVSNRFSGVPDRFSGSGSGTDFTLKISRVEAEDLGVYYCFQGSHGPWTFGGGTKLEIK
- koff [1]: 0.000456 s⁻¹
- Kd [2]: 10.8 µM
- koff [2]: 0.00225 s⁻¹
- koff [3]: 0.00144 s⁻¹
